Measurements reported in paper PMC9482650, “Quantitative fragmentomics allow affinity mapping of interactomes” (Nature Communications, 2022).

Assays:
Assay in all cases: holdup assay
Design in all cases: key: below the threshold = too weak to quantify, mostly under pKd 3.1 to 4
[1] = target: T1, APBA3_1, O96018
T1 sequence (O96018 389-490, limits assumed, looked up): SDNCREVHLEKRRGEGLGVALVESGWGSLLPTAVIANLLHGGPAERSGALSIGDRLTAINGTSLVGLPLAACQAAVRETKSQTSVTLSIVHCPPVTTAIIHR

[2] = target: T2, CARD11, Q9BXL7
T2 sequence (Q9BXL7 662-765, limits assumed, looked up): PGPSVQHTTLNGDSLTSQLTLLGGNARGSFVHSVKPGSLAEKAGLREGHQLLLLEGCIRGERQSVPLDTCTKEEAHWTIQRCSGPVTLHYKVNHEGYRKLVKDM

[3] = target: DLG2_2, Q15700
[4] = target: DLG4_3, P78352
[5] = target: T3, DVL3, Q92997
T3 sequence (Q92997 244-331, limits assumed, looked up): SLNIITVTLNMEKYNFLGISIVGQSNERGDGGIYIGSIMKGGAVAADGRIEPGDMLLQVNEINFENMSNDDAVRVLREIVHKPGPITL

[6] = target: FRMPD3, Q5JV73
[7] = target: GOPC, Q9HD26
[8] = target: GORASP2, Q9H8Y8
[9] = target: T4, GRIP1_5, Q9Y3R0
T4 sequence (Q9Y3R0 568-668, limits assumed, looked up): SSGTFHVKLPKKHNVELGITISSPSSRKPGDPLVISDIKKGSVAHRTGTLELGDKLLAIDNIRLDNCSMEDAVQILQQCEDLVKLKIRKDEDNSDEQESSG

[10] = target: GRIP2_4, Q9C0E4
[11] = target: GRIP2_6, Q9C0E4
[12] = target: HTRA1, Q92743
[13] = target: HTRA2, O43464
[14] = target: T5, HTRA3, P83110
T5 sequence (P83110 354-453, limits assumed, looked up): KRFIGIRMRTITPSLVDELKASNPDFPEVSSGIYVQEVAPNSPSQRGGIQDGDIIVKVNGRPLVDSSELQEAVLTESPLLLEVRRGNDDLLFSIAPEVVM

[15] = target: Inadl_6, Q8NI35
[16] = target: LAP2, Q96RT1
[17] = target: LNX1_1, Q8TBB1
[18] = target: LNX1_2, Q8TBB1
[19] = target: T6, LNX2_3, Q8N448
T6 sequence (Q8N448 463-564, limits assumed, looked up): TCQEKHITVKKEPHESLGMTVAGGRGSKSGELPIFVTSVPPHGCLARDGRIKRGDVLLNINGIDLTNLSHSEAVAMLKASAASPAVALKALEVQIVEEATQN

[20] = target: T7, LRRC7, Q96NW7
T7 sequence (Q96NW7 1440-1537, limits assumed, looked up): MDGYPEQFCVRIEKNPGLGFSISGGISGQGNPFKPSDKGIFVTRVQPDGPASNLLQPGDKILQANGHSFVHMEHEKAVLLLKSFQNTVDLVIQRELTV

[21] = target: MAGI3_2, Q5TCQ9
[22] = target: T8, MPP7, Q5T2T1
T8 sequence (Q5T2T1 134-230, limits assumed, looked up): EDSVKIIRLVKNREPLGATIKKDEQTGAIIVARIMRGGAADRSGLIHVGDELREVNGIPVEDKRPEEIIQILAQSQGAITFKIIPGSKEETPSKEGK

[23] = target: NHERF4_1, Q86UT5-2
[24] = target: PDZRN4_1, Q6ZMN7
[25] = target: T9, SNTB1, Q13884
T9 sequence (Q13884 107-205, limits assumed, looked up): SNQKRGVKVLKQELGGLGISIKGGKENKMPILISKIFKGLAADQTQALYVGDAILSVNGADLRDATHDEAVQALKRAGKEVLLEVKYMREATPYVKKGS

[26] = target: TJP1_3, Q07157
[27] = target: T10, TJP3_3, O95049
T10 sequence (O95049 375-456, limits assumed, looked up): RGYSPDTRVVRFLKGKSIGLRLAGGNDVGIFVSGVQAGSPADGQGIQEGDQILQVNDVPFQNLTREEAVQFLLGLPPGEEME

[28] = plain residues with an end cap or a label only (N-terminal biotin on a linker: ttds)
[29] = plain residues with an end cap or a label only (N-terminal biotin on a linker: ahx)

Sequence of LNX1_2, Q8TBB1 (Q8TBB1 371-470): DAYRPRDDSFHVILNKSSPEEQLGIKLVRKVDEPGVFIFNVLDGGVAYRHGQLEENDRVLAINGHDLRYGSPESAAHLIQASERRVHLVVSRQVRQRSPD
Sequence of TJP1_3, Q07157 (Q07157 416-512): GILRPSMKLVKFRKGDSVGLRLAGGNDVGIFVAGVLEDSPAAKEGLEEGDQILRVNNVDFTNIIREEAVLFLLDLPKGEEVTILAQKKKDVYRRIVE
Sequence of DLG2_2, Q15700 (Q15700 189-283): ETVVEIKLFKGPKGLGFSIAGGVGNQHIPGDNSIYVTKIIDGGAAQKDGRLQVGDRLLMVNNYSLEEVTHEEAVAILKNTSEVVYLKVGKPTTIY
Sequence of NHERF4_1, Q86UT5-2 (Q86UT5 other isoform, or with tags, fused parts or gaps): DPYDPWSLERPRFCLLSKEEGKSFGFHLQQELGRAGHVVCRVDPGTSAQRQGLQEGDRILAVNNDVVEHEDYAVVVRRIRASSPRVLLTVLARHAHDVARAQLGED
Sequence of HTRA1, Q92743 (Q92743 360-477): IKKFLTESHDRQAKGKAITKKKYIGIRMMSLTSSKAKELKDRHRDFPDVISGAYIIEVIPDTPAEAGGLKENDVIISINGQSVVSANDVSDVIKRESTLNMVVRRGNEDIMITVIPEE
Sequence of Inadl_6, Q8NI35 (Q8NI35 1058-1167): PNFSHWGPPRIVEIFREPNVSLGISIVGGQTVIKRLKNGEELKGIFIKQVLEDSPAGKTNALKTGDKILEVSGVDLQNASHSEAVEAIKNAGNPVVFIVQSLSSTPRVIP
Sequence of PDZRN4_1, Q6ZMN7 (Q6ZMN7 213-318): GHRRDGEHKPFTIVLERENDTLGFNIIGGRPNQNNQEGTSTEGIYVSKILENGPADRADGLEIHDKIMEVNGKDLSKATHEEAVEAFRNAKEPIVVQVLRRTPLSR
Sequence of GRIP2_4, Q9C0E4 (Q9C0E4 446-548): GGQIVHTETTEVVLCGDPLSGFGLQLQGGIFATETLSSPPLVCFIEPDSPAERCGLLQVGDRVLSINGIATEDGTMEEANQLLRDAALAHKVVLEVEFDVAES
Sequence of GRIP2_6, Q9C0E4 (Q9C0E4 648-740): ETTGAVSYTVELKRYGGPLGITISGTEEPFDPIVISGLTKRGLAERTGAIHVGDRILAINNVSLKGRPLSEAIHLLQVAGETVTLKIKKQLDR
Sequence of FRMPD3, Q5JV73 (Q5JV73 12-100): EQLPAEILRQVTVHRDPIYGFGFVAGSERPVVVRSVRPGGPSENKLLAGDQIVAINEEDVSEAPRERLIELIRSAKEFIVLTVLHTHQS
Sequence of MAGI3_2, Q5TCQ9 (Q5TCQ9 398-503): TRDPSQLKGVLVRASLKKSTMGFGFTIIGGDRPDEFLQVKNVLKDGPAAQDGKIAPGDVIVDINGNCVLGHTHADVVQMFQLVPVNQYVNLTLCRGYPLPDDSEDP
Sequence of HTRA2, O43464 (O43464 355-458): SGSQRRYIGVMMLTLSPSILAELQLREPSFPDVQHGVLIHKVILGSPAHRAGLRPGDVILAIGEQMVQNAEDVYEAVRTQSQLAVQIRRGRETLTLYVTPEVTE
Sequence of LNX1_1, Q8TBB1 (Q8TBB1 261-371): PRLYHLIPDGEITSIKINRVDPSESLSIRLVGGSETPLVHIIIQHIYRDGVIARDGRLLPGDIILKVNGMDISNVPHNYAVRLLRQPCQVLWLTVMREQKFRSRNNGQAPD
Sequence of LAP2, Q96RT1 (Q96RT1 other isoform, or with tags, fused parts or gaps): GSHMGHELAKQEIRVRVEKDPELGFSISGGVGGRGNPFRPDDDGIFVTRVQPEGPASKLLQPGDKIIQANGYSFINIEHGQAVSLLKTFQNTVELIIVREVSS
Sequence of DLG4_3, P78352 (P78352 306-403): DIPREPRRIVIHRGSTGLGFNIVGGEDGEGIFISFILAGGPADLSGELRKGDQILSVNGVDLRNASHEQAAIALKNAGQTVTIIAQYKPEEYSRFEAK

RLPKIKETTV [FRMPD4, Q14CM0]
pKd [1, 28]: below the threshold | pKd [2, 28]: below the threshold | pKd [3, 28]: 5.5 | pKd [4, 28]: 5.25 | pKd [5, 28]: 3.43 | pKd [6, 28]: below the threshold | pKd [7, 28]: 3.83 | pKd [8, 28]: 4.02 | pKd [9, 28]: below the threshold | pKd [10, 28]: below the threshold | pKd [11, 28]: 3.39 | pKd [12, 28]: 3.64 | pKd [13, 28]: below the threshold | pKd [14, 28]: below the threshold | pKd [15, 28]: below the threshold | pKd [16, 28]: 3.87 | pKd [17, 28]: below the threshold | pKd [18, 28]: 3.42 | pKd [19, 28]: below the threshold | pKd [20, 28]: 3.58 | pKd [21, 28]: 5.27 | pKd [22, 28]: below the threshold | pKd [23, 28]: below the threshold | pKd [24, 28]: 4.67 | pKd [25, 28]: 5.17 | pKd [26, 28]: below the threshold | pKd [27, 28]: below the threshold

EVVHTPETSV [SLC16A3, O15427]
pKd [1, 28]: below the threshold | pKd [2, 28]: below the threshold | pKd [3, 28]: 3.98 | pKd [4, 28]: 3.94 | pKd [5, 28]: below the threshold | pKd [6, 28]: below the threshold | pKd [7, 28]: below the threshold | pKd [8, 28]: below the threshold | pKd [9, 28]: below the threshold | pKd [10, 28]: below the threshold | pKd [11, 28]: below the threshold | pKd [12, 28]: below the threshold | pKd [13, 28]: below the threshold | pKd [14, 28]: below the threshold | pKd [15, 28]: below the threshold | pKd [16, 28]: 3.81 | pKd [17, 28]: below the threshold | pKd [18, 28]: below the threshold | pKd [19, 28]: below the threshold | pKd [20, 28]: below the threshold | pKd [21, 28]: 4.33 | pKd [22, 28]: below the threshold | pKd [23, 28]: 4.19 | pKd [24, 28]: 4.5 | pKd [25, 28]: 4.76 | pKd [26, 28]: below the threshold | pKd [27, 28]: below the threshold

GYDWGPATDL [TJP3, O95049]
pKd [1, 29]: below the threshold | pKd [2, 29]: below the threshold | pKd [3, 29]: below the threshold | pKd [4, 29]: below the threshold | pKd [5, 29]: below the threshold | pKd [6, 29]: below the threshold | pKd [7, 29]: 3.93 | pKd [8, 29]: below the threshold | pKd [9, 29]: below the threshold | pKd [10, 29]: below the threshold | pKd [11, 29]: below the threshold | pKd [12, 29]: 4.12 | pKd [13, 29]: below the threshold | pKd [14, 29]: below the threshold | pKd [15, 29]: 4.8 | pKd [16, 29]: 3.73 | pKd [17, 29]: 4.84 | pKd [18, 29]: below the threshold | pKd [19, 29]: below the threshold | pKd [20, 29]: 3.7 | pKd [21, 29]: below the threshold | pKd [22, 29]: below the threshold | pKd [23, 29]: 3.72 | pKd [24, 29]: below the threshold | pKd [25, 29]: 4.08 | pKd [26, 29]: below the threshold | pKd [27, 29]: below the threshold

HNAFLSVTTV [PDZRN4, Q6ZMN7]
pKd [1, 29]: below the threshold | pKd [2, 29]: below the threshold | pKd [3, 29]: below the threshold | pKd [4, 29]: 3.56 | pKd [5, 29]: below the threshold | pKd [6, 29]: below the threshold | pKd [7, 29]: 3.6 | pKd [8, 29]: 3.55 | pKd [9, 29]: 3.55 | pKd [10, 29]: below the threshold | pKd [11, 29]: 3.56 | pKd [12, 29]: 3.61 | pKd [13, 29]: below the threshold | pKd [14, 29]: below the threshold | pKd [15, 29]: below the threshold | pKd [16, 29]: below the threshold | pKd [17, 29]: below the threshold | pKd [18, 29]: 3.65 | pKd [19, 29]: below the threshold | pKd [20, 29]: 3.5 | pKd [21, 29]: 3.58 | pKd [22, 29]: below the threshold | pKd [23, 29]: 3.69 | pKd [24, 29]: 3.5 | pKd [25, 29]: 3.54 | pKd [26, 29]: below the threshold | pKd [27, 29]: below the threshold
